Source: the supplement of paper PMC10567573

B1: FAM189A2 (parent)
chain: CALNALTTTVCLVAAALRYLQIFA
B2: ZNF511 (parent)
chain: EPLPVERDPAAGAAPFRFVARPVR

Variants of: B1
Assay: protein stability index of a GFP-peptide fusion (GPS, HEK-293T) (PSI 1-6); higher = more stable
Conditions: c terminus: a fixed tail appended
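Note: lentivirally expressed fusions sorted by FACS into six bins by GFP to DsRed ratio, PSI derived from sequencing read proportions per bin multiplied by bin number.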

Protein stability index of substitutions, site by site:
A24: M 2.65; F 2.59; C 3.96; T 3.23; V 3.43; S 4.25; L 2.63; G 4.19; I 2.19; D 2.51
V10: G 4.6; F 1.53; N 2.53; I 2.3; D 4.46; S 4.12; T 2.65; C 1.42
N4: I 2.87; S 3.62; H 3.53; G 2.34; W 2.84; T 2.17; C 2.79; E 2.1
R18: K 3.85; Y 3.89; V 3.16; T 2.38; G 3.25; P 1.82; L 2.98; Q 2.72; I 3.84; D 3.02; M 1.38
F23: V 4.08; Q 4.3; D 2.47; Y 2.85; R 3.81; G 4.67; S 3.01
C1: A 2.05; Q 3.13; F 4.75; T 3.21; I 2.86; H 2.7; K 3.08; R 3.14; D 2.46; G 2.6
V13: F 3.5; D 2.59; G 3.15; M 2.25; Q 2.8; R 3.73; L 2.8; E 3.61; P 2.88; T 3
L17: K 3.29; G 3.97; T 2.14; Q 2.57; E 3.03; W 3.15; I 4.04; N 3.87; A 1.47; H 2.72; P 2.91
A16: T 1.94; Y 2.27; P 2.79; S 2.97; V 3.33; D 3.52; R 3.06; F 2.55
Y19: K 2.19; W 3.75; H 1.98; V 1.9; F 3.29; E 3.73; L 3.58
A2: Y 3.17; M 2.77; K 3.83; F 4.07; I 2.77; G 3.74; W 2.26; Q 3.74; R 3.42
L6: C 2.11; Q 2.83; T 2.87; A 2.83; G 4.13; I 1.47; D 3.49; R 2.87; F 1.13; P 3.83; N 3.48; W 3.2
T7: G 2.78; P 3.27; Y 3.46; M 4.03; Q 3.37; K 1.87; R 2.34; W 2.89; S 2.85
A15: F 4.15; H 2.6; I 3.05; Q 2.05; K 2.76; T 1.8; V 3.64; Y 3.03; L 2.19; S 3.48; R 2.41
T9: Y 2.69; H 2.19; L 2.69; P 3.2; I 2.68; A 3.62; V 3.39; G 4.16; S 3.11; Q 3.59
C11: H 1.63; Y 3.58; T 2.74; K 3.55; Q 1.41; M 2.97; F 3.1; L 3.18
Q21: A 3.09; K 2.07; V 2.12; S 1.64; C 2.75; Y 3.35; R 1.72; N 2.02; I 2.65; E 3.35
L20: N 2.53; R 3.02; F 2.75; Q 3.06; V 1.72; K 3.6
A14: W 1.93; P 3.27; Q 2.2; N 3.17; E 3.46; G 2.74; R 2.23; F 3.14; T 3.07; I 3.7
I22: V 2.72; Q 2.9; G 3.11; L 2.83; S 3.43; R 2.16; F 2.44; H 2.75; T 2.33; K 2.14; E 3.28; N 2.58
A5: I 3.46; M 3.65; C 3.07; S 3.5; K 4.99; T 3.6; N 2.07; R 2.98; E 3.02
T8: C 2.95; W 3.44; K 1.93; M 2.93; H 2.94; L 1.99; E 4.29
L3: T 2.98; Q 3; S 2; R 2.9; H 2.11
L12: F 2.56; N 4.01; E 1.51; W 3.65; A 3.5; M 3.44; T 2.96

Variants of: B2
Assay: as above
Conditions: c terminus: a fixed tail appended

Protein stability index of substitutions, site by site:
P9: R 1.54; V 1.92; F 2.17
A11: H 2.61; V 1.42; P 2.68; S 2.43
P4: R 3.23; Y 1.64; S 3.43; A 2.88; V 2.49; L 2.27
A10: G 2.17; P 2.41; N 3.07; Y 2.97; S 2.23; L 2.71; M 2.11
D8: H 2.25
F16: G 5.43; K 4.67; T 4.52; M 3.69
E1: G 1.85; Q 2.9; K 2.06; I 2.12; M 2.38; R 2.39
R7: M 2.09; P 2.22; Q 2.65; V 2.42; I 2.91
V19: R 4.22; A 4.47; N 4.36; E 4.57; S 4.62
P22: T 1.92; G 1.85; A 2.64; S 2.51; V 2.6; M 2.48
V23: N 2.13; H 2.69; Y 2.07; S 2.41
A20: T 2.8; H 2.81; M 2.49; L 3.35
E6: S 1.96; T 2.6; W 1.56; H 2.44; P 3
V5: W 2.64; F 2.12; L 2.23; S 2.56; H 1.96; P 2; Y 2.1
P15: G 3.84; S 4.09; K 4.09; M 3.73; V 3.12
L3: F 2.01; H 2.56; C 2.16; K 2.4; S 3.09; V 2.23; G 2.23
F18: V 4.6; D 4.97; A 4.83
P2: C 2.08; M 2.3; L 2.37; S 2.84; R 2.36; H 2.12; Y 2.45; V 2.03
R24: L 1.62; K 2.04; T 1.97; I 2.33
R21: E 2.35; T 2.57; K 2.71; S 2.14; N 1.59; F 2.51
G12: P 1.76; L 2.4; S 2.02; K 2.52; F 2.01; H 2.64
A13: K 2.71; Y 2.02; M 3.42; T 2.5
R17: Q 4.65; F 2.56; G 4.86; E 4.94; H 4.17; P 4.88; M 3.88
A14: N 2.69; W 2.47
